Experimental data as given in US11472855, “RNA-binding protein” (Panitch Schwarze Belisario & Nadel LLP).

How the values were obtained:
Details in all cases: label: Alexa680 at 5' and 3'
[1] = target: T1, hPUF_MT(R1_Q16R, R3→R5, R4→R6) (R1 repeat Q16R); assay: EMSA; C>U>>G>A; printed as Q16E (C recognition)
T1 chain: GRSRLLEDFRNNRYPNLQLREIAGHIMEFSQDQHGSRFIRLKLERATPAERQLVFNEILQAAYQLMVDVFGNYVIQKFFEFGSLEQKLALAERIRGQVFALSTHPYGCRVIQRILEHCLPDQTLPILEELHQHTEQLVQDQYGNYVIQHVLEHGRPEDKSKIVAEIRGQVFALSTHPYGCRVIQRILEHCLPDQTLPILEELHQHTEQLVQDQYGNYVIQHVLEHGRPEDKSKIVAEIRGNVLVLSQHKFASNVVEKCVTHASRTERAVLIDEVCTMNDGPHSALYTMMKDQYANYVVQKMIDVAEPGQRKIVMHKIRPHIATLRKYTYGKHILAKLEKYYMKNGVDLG

hPUF_MT(R3→R5, R4→R6) [2] = target: T2, hPUF_MT(R3→R5, R4→R6); assay: EMSA; U=C>A>G at R1 position
T2 chain: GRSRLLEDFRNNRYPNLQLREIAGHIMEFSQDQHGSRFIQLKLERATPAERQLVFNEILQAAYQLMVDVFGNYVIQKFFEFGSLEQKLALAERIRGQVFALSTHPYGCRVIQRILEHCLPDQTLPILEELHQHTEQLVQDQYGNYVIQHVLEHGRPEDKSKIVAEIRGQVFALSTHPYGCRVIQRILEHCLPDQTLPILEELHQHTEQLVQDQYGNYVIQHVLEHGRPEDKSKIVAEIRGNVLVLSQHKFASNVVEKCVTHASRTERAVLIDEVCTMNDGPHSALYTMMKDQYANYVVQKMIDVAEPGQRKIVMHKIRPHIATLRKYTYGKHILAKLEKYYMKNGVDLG

[3] = target: T3, hPUF_MT(R1_Q16E, R3→R5, R4→R6) (R1 repeat Q16E); assay: EMSA; G>>U=C
T3 chain: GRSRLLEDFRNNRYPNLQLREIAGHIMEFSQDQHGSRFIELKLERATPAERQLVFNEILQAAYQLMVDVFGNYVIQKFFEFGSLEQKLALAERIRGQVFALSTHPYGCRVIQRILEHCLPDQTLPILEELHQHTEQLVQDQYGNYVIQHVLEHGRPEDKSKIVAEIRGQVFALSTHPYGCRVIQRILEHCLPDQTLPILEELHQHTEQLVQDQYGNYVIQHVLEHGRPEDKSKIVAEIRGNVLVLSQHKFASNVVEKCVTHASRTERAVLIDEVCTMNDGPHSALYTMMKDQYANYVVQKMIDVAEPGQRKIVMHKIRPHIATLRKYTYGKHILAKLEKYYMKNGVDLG

[4] = target: T4, hPUF_MT(R1_S12N, R3→R5, R4→R6) (R1 repeat S12N); assay: EMSA; U>C>>G=A
T4 chain: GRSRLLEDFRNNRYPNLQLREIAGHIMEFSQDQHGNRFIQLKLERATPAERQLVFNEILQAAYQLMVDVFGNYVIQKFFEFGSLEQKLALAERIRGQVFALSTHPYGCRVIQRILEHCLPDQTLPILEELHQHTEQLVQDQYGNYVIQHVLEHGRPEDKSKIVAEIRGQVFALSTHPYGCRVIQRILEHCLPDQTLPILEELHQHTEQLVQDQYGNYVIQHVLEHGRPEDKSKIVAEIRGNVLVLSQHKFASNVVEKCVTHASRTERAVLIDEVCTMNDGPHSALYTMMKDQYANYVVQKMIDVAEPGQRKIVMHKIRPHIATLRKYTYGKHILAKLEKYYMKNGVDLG

hPUF_MT(R3→R5, R4→R6) [5] = target: T2, hPUF_MT(R3→R5, R4→R6); assay: EMSA; U=C>A>G at R1 position; backbone printed as R4→R5
[6] = target: T5, hPUF_MT(1-2-6-5-6-5-6-7-8); assay: EMSA
T5 chain: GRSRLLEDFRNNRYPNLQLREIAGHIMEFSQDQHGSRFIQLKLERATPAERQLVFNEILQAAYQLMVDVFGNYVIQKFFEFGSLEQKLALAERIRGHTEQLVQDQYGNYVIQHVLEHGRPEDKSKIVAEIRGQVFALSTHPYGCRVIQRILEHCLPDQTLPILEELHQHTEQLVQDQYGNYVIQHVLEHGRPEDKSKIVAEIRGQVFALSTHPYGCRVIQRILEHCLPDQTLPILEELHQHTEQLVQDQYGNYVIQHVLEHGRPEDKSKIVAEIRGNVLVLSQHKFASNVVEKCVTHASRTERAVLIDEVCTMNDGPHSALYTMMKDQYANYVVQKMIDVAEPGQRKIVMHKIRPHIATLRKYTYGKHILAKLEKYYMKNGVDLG

[7] = target: T6, hPUF_MT(R7_S12C,E16Q, R3→R5, R4→R6) (R7 repeat S12C,E16Q); assay: EMSA; U>C
T6 chain: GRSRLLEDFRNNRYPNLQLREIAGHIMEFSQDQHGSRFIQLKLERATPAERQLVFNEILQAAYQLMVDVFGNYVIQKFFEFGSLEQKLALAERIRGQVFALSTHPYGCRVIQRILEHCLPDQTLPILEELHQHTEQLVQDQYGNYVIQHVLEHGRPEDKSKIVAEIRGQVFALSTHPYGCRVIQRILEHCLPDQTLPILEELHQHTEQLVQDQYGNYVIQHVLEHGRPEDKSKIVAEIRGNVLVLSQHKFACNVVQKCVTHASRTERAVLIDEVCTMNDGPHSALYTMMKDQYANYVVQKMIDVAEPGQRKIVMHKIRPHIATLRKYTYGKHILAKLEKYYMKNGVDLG

[8] = target: T7, hPUF_MT(R7_E16R, R3→R5, R4→R6) (R7 repeat E16R); assay: EMSA; binds C and U
T7 chain: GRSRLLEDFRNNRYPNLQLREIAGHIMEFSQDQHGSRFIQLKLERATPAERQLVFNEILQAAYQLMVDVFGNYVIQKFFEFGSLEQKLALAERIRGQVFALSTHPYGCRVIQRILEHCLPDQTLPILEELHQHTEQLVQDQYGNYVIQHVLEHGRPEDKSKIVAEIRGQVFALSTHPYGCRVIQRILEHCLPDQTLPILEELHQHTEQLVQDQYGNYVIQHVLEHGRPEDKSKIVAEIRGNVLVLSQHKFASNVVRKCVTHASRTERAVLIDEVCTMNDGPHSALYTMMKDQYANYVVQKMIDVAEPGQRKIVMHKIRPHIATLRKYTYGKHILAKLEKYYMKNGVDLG

hPUF_MT(R3→R5, R4→R6) [9] = target: T2, hPUF_MT(R3→R5, R4→R6); assay: EMSA; binds G exclusively at R7 position
[10] = target: T8, hPUF_MT(R7_S12N,E16Q, R3→R5, R4→R6) (R7 repeat S12N,E16Q); assay: EMSA; binds U exclusively
T8 chain: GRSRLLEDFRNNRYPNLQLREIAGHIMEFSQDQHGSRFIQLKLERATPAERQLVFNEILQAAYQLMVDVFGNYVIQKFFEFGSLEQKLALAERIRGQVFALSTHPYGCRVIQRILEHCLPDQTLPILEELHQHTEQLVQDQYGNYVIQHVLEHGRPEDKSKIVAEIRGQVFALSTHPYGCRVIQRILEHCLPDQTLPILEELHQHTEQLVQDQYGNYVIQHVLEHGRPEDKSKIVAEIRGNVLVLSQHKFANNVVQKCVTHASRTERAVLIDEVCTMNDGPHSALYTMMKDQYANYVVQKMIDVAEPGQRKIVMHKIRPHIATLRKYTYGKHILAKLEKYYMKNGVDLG

[11] = target: T9, hPUF_MT(1-2-5-6-5-6-6-7-8); assay: EMSA
T9 chain: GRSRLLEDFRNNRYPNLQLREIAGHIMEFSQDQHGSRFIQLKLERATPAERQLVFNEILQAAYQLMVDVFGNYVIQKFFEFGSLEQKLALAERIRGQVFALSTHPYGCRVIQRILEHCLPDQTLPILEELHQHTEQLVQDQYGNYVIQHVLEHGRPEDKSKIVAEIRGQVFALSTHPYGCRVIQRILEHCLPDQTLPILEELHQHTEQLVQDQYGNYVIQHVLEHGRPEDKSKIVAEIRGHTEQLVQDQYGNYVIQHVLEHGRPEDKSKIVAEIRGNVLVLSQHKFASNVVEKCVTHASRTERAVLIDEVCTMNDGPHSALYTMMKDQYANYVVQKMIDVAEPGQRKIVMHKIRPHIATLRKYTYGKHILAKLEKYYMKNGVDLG

[12] = target: T10, hPUF_MT(R8_N12S, R3→R5, R4→R6) (R8 repeat N12S); assay: EMSA; no binding
T10 chain: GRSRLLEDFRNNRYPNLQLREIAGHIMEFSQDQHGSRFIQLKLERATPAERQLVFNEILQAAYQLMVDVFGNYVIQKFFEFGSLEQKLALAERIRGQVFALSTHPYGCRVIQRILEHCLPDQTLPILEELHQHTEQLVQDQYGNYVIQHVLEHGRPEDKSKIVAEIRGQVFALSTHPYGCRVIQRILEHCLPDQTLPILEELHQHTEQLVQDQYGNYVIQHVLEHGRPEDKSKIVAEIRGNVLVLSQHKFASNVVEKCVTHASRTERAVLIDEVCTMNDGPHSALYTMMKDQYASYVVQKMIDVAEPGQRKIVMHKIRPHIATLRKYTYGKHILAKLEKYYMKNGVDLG

[13] = target: T11, hPUF_MT(R8_N12C, R3→R5, R4→R6) (R8 repeat N12C); assay: EMSA; no binding
T11 chain: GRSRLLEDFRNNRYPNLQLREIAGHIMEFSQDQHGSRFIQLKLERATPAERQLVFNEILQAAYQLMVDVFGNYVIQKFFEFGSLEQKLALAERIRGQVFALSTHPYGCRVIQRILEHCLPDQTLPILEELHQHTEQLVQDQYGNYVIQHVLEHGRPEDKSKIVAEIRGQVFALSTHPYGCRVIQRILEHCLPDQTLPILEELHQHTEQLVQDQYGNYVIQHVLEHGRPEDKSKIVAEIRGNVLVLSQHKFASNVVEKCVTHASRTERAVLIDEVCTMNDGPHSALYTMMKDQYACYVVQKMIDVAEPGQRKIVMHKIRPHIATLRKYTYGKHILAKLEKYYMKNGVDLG

hPUF_MT(R8→R5) = target: T12, hPUF_MT(R8→R5) (UniProt Q14671 SEQ:1-349); assay: EMSA; substantially no binding
T12 chain: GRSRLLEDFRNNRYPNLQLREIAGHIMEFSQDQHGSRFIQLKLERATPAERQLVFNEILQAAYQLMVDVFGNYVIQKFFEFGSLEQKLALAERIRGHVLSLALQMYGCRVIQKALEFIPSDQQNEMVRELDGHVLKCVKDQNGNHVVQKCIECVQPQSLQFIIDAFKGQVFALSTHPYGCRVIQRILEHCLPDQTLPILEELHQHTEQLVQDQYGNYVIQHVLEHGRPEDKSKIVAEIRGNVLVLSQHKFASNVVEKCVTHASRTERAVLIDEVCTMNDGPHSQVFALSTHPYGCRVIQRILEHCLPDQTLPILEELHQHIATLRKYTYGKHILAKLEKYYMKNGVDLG

hPUF_MT(R3→R5, R4→R6) [14] = target: T2, hPUF_MT(R3→R5, R4→R6); assay: EMSA; binds U exclusively at R8 position
[15] = target: T13, hPUF_MT(1-2-5-5-6-5-6-7-8); assay: EMSA
T13 chain: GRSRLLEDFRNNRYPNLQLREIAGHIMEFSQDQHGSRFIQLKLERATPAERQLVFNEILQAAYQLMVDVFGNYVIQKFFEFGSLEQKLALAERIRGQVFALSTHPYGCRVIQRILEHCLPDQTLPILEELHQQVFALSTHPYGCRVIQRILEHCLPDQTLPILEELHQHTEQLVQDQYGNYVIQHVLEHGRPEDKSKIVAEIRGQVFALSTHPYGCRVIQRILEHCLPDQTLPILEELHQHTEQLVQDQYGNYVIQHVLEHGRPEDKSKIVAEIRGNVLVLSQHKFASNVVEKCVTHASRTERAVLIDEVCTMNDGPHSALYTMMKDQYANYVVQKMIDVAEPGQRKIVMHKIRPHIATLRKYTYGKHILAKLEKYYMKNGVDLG

CCAGAAUUGUAUAUCUUCG (ssRNA) [OTS-2021]: binds [1]; binds (hPUF_MT(R3→R5, R4→R6) [2]).

CCAGAAUUGUAUAUGUUCG (ssRNA) [OTS-2020]: binds [3].

CCAGAAUUGUAUAUUUUCG (ssRNA) [OTS-2022]: binds [4]; binds (hPUF_MT(R3→R5, R4→R6) [5]).

For CCAGAAUUGUAUAUUAUUCG (ssRNA) [OTS-2080], the binding signal [6] was ~3 fold of WT.

CCAGAAUUUUAUAUAUUCG (ssRNA) [OTS-2032]: binds [7]; binds [8]; no binding (hPUF_MT(R3→R5, R4→R6) [9]). CCAGAAUUUUAUAUAUUCG (ssRNA) [OTS-2032]: binds [10].

With CCAGAAUUGUUAUAUAUUCG (ssRNA) [OTS-2082] the binding signal [11] was ~3 fold of WT.

CCAGAAUAGUAUAUAUUCG (ssRNA) [OTS-1825]: no binding [12]; no binding [13]; no binding (hPUF_MT(R8→R5)). CCAGAAUAGUAUAUAUUCG (ssRNA) [OTS-1825]: no binding (hPUF_MT(R3→R5, R4→R6) [14]).

In the case of CCAGAAUUGUAUAAUAUUCG (ssRNA) [OTS-2081], the binding signal [15] is reported as ~3 fold of WT.
